Measurements taken from article PMC3516508 (PLoS ONE, 2012).

B1: βA3-crystallin (natural protein, UniProt P05813 1-215, looked up)
chain: METQAEQQELETLPTTKMAQTNPTPGSLGPWKITIYDQENFQGKRMEFTSSCPNVSERSFDNVRSLKVESGAWIGYEHTSFCGQQFILERGEYPRWDAWSGSNAYHIERLMSFRPICSANHKESKMTIFEKENFIGRQWEISDDYPSLQAMGWFNNEVGSMKIQSGAWVCYQYPGYRGYQYILECDHHGGDYKHWREWGSHAQTSQIQSIRRIQQ
notes: βA3-crystallin; also called BA3/BA1
B2: wild type (WT) human βB2-crystallin (natural protein, UniProt P43320 1-205, looked up)
chain: MASDHQTQAGKPQSLNPKIIIFEQENFQGHSHELNGPCPNLKETGVEKAGSVLVQAGPWVGYEQANCKGEQFVFEKGEYPRWDSWTSSRRTDSLSSLRPIKVDSQEHKIILYENPNFTGKKMEIIDDDVPSFHAHGYQEKVSSVRVQSGTWVGYQYPGYRGLQYLLEKGDYKDSSDFGAPHPQVQSVRRIRDMQWHQRGAFHPSN
notes: Cloned BamHI/HindIII into pET28a; Oligomeric state depends on concentration (dimer at 0.2 mg/ml, dimer and tetramer at higher concentrations); also called WT βB2-crystallin; BB2; source: E. coli Rosetta (DE3), pET28a, purified (Ni-NTA, Superdex 200)
B3: A2V mutated βB2-crystallin (natural protein, human, UniProt P43320 1-205, looked up)
chain: MVSDHQTQAGKPQSLNPKIIIFEQENFQGHSHELNGPCPNLKETGVEKAGSVLVQAGPWVGYEQANCKGEQFVFEKGEYPRWDSWTSSRRTDSLSSLRPIKVDSQEHKIILYENPNFTGKKMEIIDDDVPSFHAHGYQEKVSSVRVQSGTWVGYQYPGYRGLQYLLEKGDYKDSSDFGAPHPQVQSVRRIRDMQWHQRGAFHPSN
notes: human βB2-crystallin with the congenital cataract-linked A2V mutation, made by site-directed mutagenesis with primers from the start codon to the stop codon; Same vector and tag as m1; also called A2V mutant; source: E. coli Rosetta (DE3), pET28a, purified (Ni-NTA, Superdex 200)

Tests used:
[1] = target: the molecule itself; assay: SEC; βA3-crystallin alone, run beside the mixtures of Figure 5A; concentration not given
[2] = target: the molecule itself; assay: SEC; Superdex 200HR 10/300GL, protein at 0.2 mg/ml, buffer A (20 mM sodium phosphate, 100 mM NaCl, 1 mM DTT, 1 mM EDTA, pH 7.2), equilibrated 2 h at 4°C, run at 16°C; dimer
[3] = target: the molecule itself; assay: SEC; Superdex 200HR 10/300GL, protein concentration raised above 0.2 up to 4 mg/ml, buffer A, equilibrated 2 h at 4°C, run at 16°C; tetramer to dimers

| Protein | stoichiometry N [1] | stoichiometry N [2] | stoichiometry N [3] |
| --- | --- | --- | --- |
| B1 | 2 |  |  |
| B2 |  | 2 | 4 |
| B3 |  | 2 | 4 |
